Article PMC4773810, “Novel small molecules targeting ciliary transport of Smoothened and oncogenic Hedgehog pathway activation” (Scientific Reports, 2016)

T1: human GPRASP2 (G protein-coupled receptor associated sorting protein 2), full length (human, UniProt Q96D09 1-838)
T1 construct: G protein-coupled receptor associated sorting protein 2 (GPRASP2), human, full length; also called hGPRASP2; full-length hGPRASP2; source: E. coli Rosetta2 (DE3), purified (IMAC, TEV protease, second IMAC, size exclusion chromatography)
T1 sequence (looked up): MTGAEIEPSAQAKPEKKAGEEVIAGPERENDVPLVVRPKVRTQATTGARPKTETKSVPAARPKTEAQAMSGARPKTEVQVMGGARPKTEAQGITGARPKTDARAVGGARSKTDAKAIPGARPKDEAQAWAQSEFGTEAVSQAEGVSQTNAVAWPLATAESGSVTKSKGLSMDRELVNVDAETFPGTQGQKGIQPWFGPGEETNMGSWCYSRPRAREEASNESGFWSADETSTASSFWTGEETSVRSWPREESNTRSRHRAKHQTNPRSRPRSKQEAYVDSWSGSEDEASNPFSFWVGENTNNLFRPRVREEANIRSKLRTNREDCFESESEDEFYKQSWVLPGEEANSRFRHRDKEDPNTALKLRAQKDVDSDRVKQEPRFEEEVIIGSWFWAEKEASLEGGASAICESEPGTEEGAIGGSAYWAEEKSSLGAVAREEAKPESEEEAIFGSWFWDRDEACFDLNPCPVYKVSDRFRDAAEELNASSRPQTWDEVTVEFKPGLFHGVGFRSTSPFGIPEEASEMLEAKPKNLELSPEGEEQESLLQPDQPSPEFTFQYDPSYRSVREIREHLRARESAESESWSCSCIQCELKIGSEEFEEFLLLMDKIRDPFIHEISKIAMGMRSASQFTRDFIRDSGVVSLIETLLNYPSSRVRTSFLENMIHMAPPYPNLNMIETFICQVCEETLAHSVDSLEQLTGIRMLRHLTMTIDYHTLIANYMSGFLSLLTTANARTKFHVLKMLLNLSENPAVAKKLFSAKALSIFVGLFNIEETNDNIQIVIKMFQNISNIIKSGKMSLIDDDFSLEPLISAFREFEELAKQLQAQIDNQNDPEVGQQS

B1: hSMOM2 (aa533-552-W535L) peptide (peptide, UniProt Q99835 533-552, looked up)
peptide: STLVWTKATLLIWRRTWCRL
notes: also called hSMOM2 peptide; peptide from human SMOM2; source: synthetic peptide (PSL GmbH)

Molecular target: T1, human GPRASP2 (G protein-coupled …)
Test: NMR titration; 1D 1H NMR (…) of 100 uM peptide before and after addition of hGPRASP2 to 0.78 uM; 600 MHz, 298 K; 50 mM sodium phosphate pH 8, 50 mM NaCl, 0.002% NaN3, 100 uM DTT, 90% H2O/10% D2O
Settings: both partners purified

binding result	Binder
binds	KATLLIWRRTWCRL (peptide, UniProt Q99835 539-552, looked up, source: synthetic peptide (PSL GmbH)) [hSMO-WT (aa539-552) peptide]
binds	B1
binds	STWVWTKATLLIWRRTWCRL (peptide, UniProt Q99835 533-552, looked up, source: synthetic peptide (PSL GmbH)) [hSMO-WT (aa533-552) peptide]
